Test results as given in US10543259.

Legend:
[1] = molecular target: recombinant human IGFBP-3, 125I-labeled, P17936
[2] = molecular target: T1, recombinant human IGFBP-4, 125I-labeled, P22692
T1 chain: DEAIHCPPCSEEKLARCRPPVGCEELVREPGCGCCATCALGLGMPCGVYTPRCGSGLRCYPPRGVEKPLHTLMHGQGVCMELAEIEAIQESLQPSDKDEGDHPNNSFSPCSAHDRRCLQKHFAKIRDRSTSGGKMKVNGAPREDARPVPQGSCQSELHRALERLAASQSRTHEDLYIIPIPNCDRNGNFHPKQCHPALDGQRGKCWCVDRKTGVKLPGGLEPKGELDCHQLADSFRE

[3] = molecular target: recombinant human IGFBP-5, 125I-labeled, P24593
Chain of recombinant human IGFBP-5, 125I-labeled, P24593 (P24593 21-272): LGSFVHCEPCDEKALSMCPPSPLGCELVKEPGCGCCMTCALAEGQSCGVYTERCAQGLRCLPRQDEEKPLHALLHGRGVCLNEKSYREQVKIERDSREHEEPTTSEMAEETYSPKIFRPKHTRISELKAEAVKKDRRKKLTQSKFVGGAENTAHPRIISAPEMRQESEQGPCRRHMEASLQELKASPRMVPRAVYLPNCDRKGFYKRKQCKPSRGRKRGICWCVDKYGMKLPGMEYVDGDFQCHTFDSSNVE

Chain of recombinant human IGFBP-3, 125I-labeled, P17936 (P17936 28-291): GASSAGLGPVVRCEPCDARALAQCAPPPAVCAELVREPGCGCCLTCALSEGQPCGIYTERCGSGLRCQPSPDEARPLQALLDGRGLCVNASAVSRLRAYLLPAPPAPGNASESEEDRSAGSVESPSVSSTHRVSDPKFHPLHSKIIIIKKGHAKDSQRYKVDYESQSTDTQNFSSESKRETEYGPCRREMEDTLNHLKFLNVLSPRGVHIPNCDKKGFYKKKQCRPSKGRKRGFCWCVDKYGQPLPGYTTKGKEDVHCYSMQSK

| Protein | proteolytic cleavage of radiolabeled IGFBP (SDS-PAGE, autoradiography) [1] | proteolytic cleavage of radiolabeled IGFBP (SDS-PAGE, autoradiography) [2] | proteolytic cleavage of radiolabeled IGFBP (SDS-PAGE, autoradiography) [3] | proteolytic cleavage at equimolar concentrations of wild type and mutant (6 h reaction) [1] | proteolytic cleavage at equimolar concentrations of wild type and mutant (6 h reaction) [3] |
| --- | --- | --- | --- | --- | --- |
| recombinant wild-type human PAPP-A2 (pregnancy-associated plasma protein-A2) (protein) PPEESNQNGGEGSYREAETFNSQVGLPILYFSGRRERLLLRPEVLAEIPREAFTVEAWVKPEGGQNNPAIIAGVFDNCSHTVSDKGWALGIRSGKDKGKRDARFFFSLCTDRVKKATILISHSRYQPGTWTHVAATYDGRHMALYVDGTQVASSLDQSGPLNSPFMASCRSLLLGGDSSEDGHYFRGHLGTLVFWSTALPQSHFQHSSQHSSGEEEATDLVLTASFEPVNTEWVPFRDEKYPRLEVLQGFEPEPEILSPLQPPLCGQTVCDNVELISQYNGYWPLRGEKVIRYQVVNICDDEGLNPIVSEEQIRLQHEALNEAFSRYNISWQLSVHQVHNSTLRHRVVLVNCEPSKIGNDHCDPECEHPLTGYDGGDCRLQGRCYSWNRRDGLCHVECNNMLNDFDDGDCCDPQVADVRKTCFDPDSPKRAYMSVKELKEALQLNSTHFLNIYFASSVREDLAGAATWPWDKDAVTHLGGIVLSPAYYGMPGHTDTMIHEVGHVLGLYHVFKGVSERESCNDPCKETVPSMETGDLCADTAPTPKSELCREPEPTSDTCGFTRFPGAPFTNYMSYTDDNCTDNFTPNQVARMHCYLDLVYQQWTESRKPTPIPIPPMVIGQTNKSLTIHWLPPISGVVYDRASGSLCGACTEDGTFRQYVHTASSRRVCDSSGYWTPEEAVGPPDVDQPCEPSLQAWSPEVHLYHMNMTVPCPTEGCSLELLFQHPVQADTLTLWVTSFFMESSQVLFDTEILLENKESVHLGPLDTFCDIPLTIKLHVDGKVSGVKVYTFDERIEIDAALLTSQPHSPLCSGCRPVRYQVLRDPPFASGLPVVVTHSHRKFTDVEVTPGQMYQYQVLAEAGGELGEASPPLNHIHGAPYCGDGKVSERLGEECDDGDLVSGDGCSKVCELEEGFNCVGEPSLCYMYEGDGICEPFERKTSIVDCGIYTPKGYLDQWATRAYSSHEDKKKCPVSLVTGEPHSLICTSYHPDLPNHRPLTGWFPCVASENETQDDRSEQPEGSLKKEDEVWLKVCFNRPGEARAIFIFLTTDGLVPGEHQQPTVTLYLTDVRGSNHSLGTYGLSCQHNPLIINVTHHQNVLFHHTTSVLLNFSSPRVGISAVALRTSSRIGLSAPSNCISEDEGQNHQGQSCIHRPCGKQDSCPSLLLDHADVVNCTSIGPGLMKCAITCQRGFALQASSGQYIRPMQKEILLTCSSGHWDQNVSCLPVDCGVPDPSLVNYANFSCSEGTKFLKRCSISCVPPAKLQGLSPWLTCLEDGLWSLPEVYCKLECDAPPIILNANLLLPHCLQDNHDVGTICKYECKPGYYVAESAEGKVRNKLLKIQCLEGGIWEQGSCIPVVCEPPPPVFEGMYECTNGFSLDSQCVLNCNQEREKLPILCTKEGLWTQEFKLCENLQGECPPPPSELNSVEYKCEQGYGIGAVCSPLCVIPPSDPVMLPENITADTLEHWMEPVKVQSIVCTGRRQWHPDPVLVHCIQSCEPFQADGWCDTINNRAYCHYDGGDCCSSTLSSKKVIPFAADCDLDECTCRDPKAEENQ | media from cells transfected with WT PAPP-A2 cDNA completely cleaved these substrates | none of the variants cleaved the PAPP-A substrate, IGFBP-4 | media from cells transfected with WT PAPP-A2 cDNA completely cleaved these substrates | – | – |
| PAPP-A2(A1033V) (protein) PPEESNQNGGEGSYREAETFNSQVGLPILYFSGRRERLLLRPEVLAEIPREAFTVEAWVKPEGGQNNPAIIAGVFDNCSHTVSDKGWALGIRSGKDKGKRDARFFFSLCTDRVKKATILISHSRYQPGTWTHVAATYDGRHMALYVDGTQVASSLDQSGPLNSPFMASCRSLLLGGDSSEDGHYFRGHLGTLVFWSTALPQSHFQHSSQHSSGEEEATDLVLTASFEPVNTEWVPFRDEKYPRLEVLQGFEPEPEILSPLQPPLCGQTVCDNVELISQYNGYWPLRGEKVIRYQVVNICDDEGLNPIVSEEQIRLQHEALNEAFSRYNISWQLSVHQVHNSTLRHRVVLVNCEPSKIGNDHCDPECEHPLTGYDGGDCRLQGRCYSWNRRDGLCHVECNNMLNDFDDGDCCDPQVADVRKTCFDPDSPKRAYMSVKELKEALQLNSTHFLNIYFASSVREDLAGAATWPWDKDAVTHLGGIVLSPAYYGMPGHTDTMIHEVGHVLGLYHVFKGVSERESCNDPCKETVPSMETGDLCADTAPTPKSELCREPEPTSDTCGFTRFPGAPFTNYMSYTDDNCTDNFTPNQVARMHCYLDLVYQQWTESRKPTPIPIPPMVIGQTNKSLTIHWLPPISGVVYDRASGSLCGACTEDGTFRQYVHTASSRRVCDSSGYWTPEEAVGPPDVDQPCEPSLQAWSPEVHLYHMNMTVPCPTEGCSLELLFQHPVQADTLTLWVTSFFMESSQVLFDTEILLENKESVHLGPLDTFCDIPLTIKLHVDGKVSGVKVYTFDERIEIDVALLTSQPHSPLCSGCRPVRYQVLRDPPFASGLPVVVTHSHRKFTDVEVTPGQMYQYQVLAEAGGELGEASPPLNHIHGAPYCGDGKVSERLGEECDDGDLVSGDGCSKVCELEEGFNCVGEPSLCYMYEGDGICEPFERKTSIVDCGIYTPKGYLDQWATRAYSSHEDKKKCPVSLVTGEPHSLICTSYHPDLPNHRPLTGWFPCVASENETQDDRSEQPEGSLKKEDEVWLKVCFNRPGEARAIFIFLTTDGLVPGEHQQPTVTLYLTDVRGSNHSLGTYGLSCQHNPLIINVTHHQNVLFHHTTSVLLNFSSPRVGISAVALRTSSRIGLSAPSNCISEDEGQNHQGQSCIHRPCGKQDSCPSLLLDHADVVNCTSIGPGLMKCAITCQRGFALQASSGQYIRPMQKEILLTCSSGHWDQNVSCLPVDCGVPDPSLVNYANFSCSEGTKFLKRCSISCVPPAKLQGLSPWLTCLEDGLWSLPEVYCKLECDAPPIILNANLLLPHCLQDNHDVGTICKYECKPGYYVAESAEGKVRNKLLKIQCLEGGIWEQGSCIPVVCEPPPPVFEGMYECTNGFSLDSQCVLNCNQEREKLPILCTKEGLWTQEFKLCENLQGECPPPPSELNSVEYKCEQGYGIGAVCSPLCVIPPSDPVMLPENITADTLEHWMEPVKVQSIVCTGRRQWHPDPVLVHCIQSCEPFQADGWCDTINNRAYCHYDGGDCCSSTLSSKKVIPFAADCDLDECTCRDPKAEENQ | showed no proteolytic activity towards IGFBP-3 or -5 | none of the variants cleaved the PAPP-A substrate, IGFBP-4 | showed no proteolytic activity towards IGFBP-3 or -5 | at equimolar concentrations (FIG. 3C), it still showed no activity | at equimolar concentrations (FIG. 3C), it still showed no activity |
